Experiment [1] concerns the target Staphylococcus aureus protein A (SpA) in the cell wall of SA bacteria (strain ATCC #25923 and clinical isolate 00X) (Staphylococcus aureus). Description: flow cytometry: SA clinical isolate 00X incubated with biotinylated MABp1 (negative control), then streptavidin-APC; mean fluorescence FL4-H from the table beside the histogram (top panel).
Experiment [2] has the same target. The experiment is described as follows: flow cytometry: SA strain ATCC #25923 incubated with biotinylated MABp1 (negative control), then streptavidin-APC; mean fluorescence FL4-H from the table beside the histogram (bottom panel). (In general: Flow cytometry measures light scatter and fluorescence of single cells or particles in a stream.)
Experiment [3] shares this target. Description: flow cytometry: SA strain ATCC #25923 by the legend (printed on the sheet as 25935) pre-incubated with human sera for 15 minutes, then biotinylated MABp1-IgG3 (isotype-matched negative control), then streptavidin-APC (bottom panel).
Experiment [4] shares this target. The experiment is described as follows: flow cytometry: SA clinical isolate 00X pre-incubated with human sera for 15 minutes, then biotinylated MABp1-IgG3 (isotype-matched negative control), then streptavidin-APC (top panel).

For MABp1-IgG1 (antibody), the figures for the Mean:FL4-H in experiment [1] and in experiment [2] were 29.8 and 46.7, respectively.

Consider MABp1-IgG3 (antibody), for which the values for the Mean:FL4-H in experiment [3] and in experiment [4] were 10.3 and 19.1, respectively.
